From publication PMC12407318

Test: sheep red blood cell hemolysis, OD542
Conditions: glycan lost; control: WT Anxa2

B1: Annexin A2 (Anxa2): S22A (protein)
parent chain: MSTVHEILCKLSLEGDHSTPPSAYGSVKPYTNFDAERDALNIETAVKTKGVDEVTIVNILTNRSNVQRQDIAFAYQRRTKKELPSALKSALSGHLETVILGLLKTPAQYDASELKASMKGLGTDEDSLIEIICSRTNQELQEINRVYKEMYKTDLEKDIISDTSGDFRKLMVALAKGRRAEDGSVIDYELIDQDARELYDAGVKRKGTDVPKWISIMTERSVCHLQKVFERYKSYSPYDMLESIKKEVKGDLENAFLNLVQCIQNKPLYFADRLYDSMKGKGTRDKVLIRIMVSRSEVDMLKIRSEFKRKYGKSLYYYIQQDTKGDYQKALLYLCGGDD
other: MBL-MASP complement activation: decreases

B2: Annexin A2 (Anxa2): S26A (protein)
parent chain: MSTVHEILCKLSLEGDHSTPPSAYGSVKPYTNFDAERDALNIETAVKTKGVDEVTIVNILTNRSNVQRQDIAFAYQRRTKKELPSALKSALSGHLETVILGLLKTPAQYDASELKASMKGLGTDEDSLIEIICSRTNQELQEINRVYKEMYKTDLEKDIISDTSGDFRKLMVALAKGRRAEDGSVIDYELIDQDARELYDAGVKRKGTDVPKWISIMTERSVCHLQKVFERYKSYSPYDMLESIKKEVKGDLENAFLNLVQCIQNKPLYFADRLYDSMKGKGTRDKVLIRIMVSRSEVDMLKIRSEFKRKYGKSLYYYIQQDTKGDYQKALLYLCGGDD
other: MBL-MASP complement activation: decreases
